Values belong to the molecule of their own block, whether it stands above or below them.
T1: mCATCH(-) peptide, Ac-EQEPEPEPEQE-Am
T1 construct: Mutant of CATCH(-) with proline in place of the phenylalanine residues
T1 peptide: Ac-EQEPEPEPEQE-NH2

B1: CATCH(-) peptide, Ac-EQEFEFEFEQE-Am (peptide)
peptide: Ac-EQEFEFEFEQE-NH2
notes: Synthetic anionic variant of Q11; also called CATCH (6-); CATCH(6-)
B2: CATCH(+) peptide, Ac-QQKFKFKFKQQ-Am (peptide)
peptide: Ac-QQKFKFKFKQQ-NH2
notes: Synthetic cationic variant of Q11; also called CATCH (4+); CATCH(4+)
B3: mCATCH(+) peptide, Ac-QQKPKPKPKQQ-Am (peptide)
peptide: Ac-QQKPKPKPKQQ-NH2
notes: Mutant of CATCH(+) with proline in place of the phenylalanine residues; also called mutant CATCH(4+); mCATCH (4+)

Assays:
[1] = biological target: CATCH(+) peptide, Ac-…-Am; experiment: fluorescence microscopy of binary mixtures (FIG. 33A: 0.75 µM CATCH(+))
[2] = biological target: the molecule itself; experiment: ThT fluorimetry, TEM, circular dichroism and fluorescence microscopy of the peptide alone
[3] = biological target: B3; experiment: ThT fluorimetry, equimolar mixture in 1xPBS
Experimental: (§1) Thioflavin T (ThT) Assay. A ThT stock solution containing 0.8 mg/mL of thioflavin T (Acros) in 1× phosphate-buffered saline (PBS) (137 mM NaCl, 2.7 mM KCl, 10 mM Na₂HPO₄ and 1.8 mM KH₂PO₄, pH 7.4) was filtered through a 0.22 μm syringe filter (Millex), and further diluted 1:10 with 1×PBS to create a working solution. Peptide samples were mixed with the ThT working solution at a 1:10 (v/v) ratio, added to a black 96-well plate (Corning), and analyzed with a Molecular Devices SpectraMax M3 spectrophotometer (excitation 450, emission 482 nm). All samples were run in triplicate, with the mean and standard deviation of these samples reported.

[4] = biological target: T1, mCATCH(-) peptide, Ac-EQEPEPEPEQE-Am; experiment: ThT fluorimetry, equimolar mixture in 1xPBS
Experimental: as §1

[5] = biological target: T1, mCATCH(-) peptide, Ac-EQEPEPEPEQE-Am; experiment: ThT fluorimetry, kinetic analysis

concentration below which only diffuse fluorescence (no microparticles) was observed [1]: < 7.5 µM
Molecule: CATCH(-)GFP, recombinant fusion of CATCH(-) and superfolder green fluorescent protein

Molecule: B1
binding result [2]: no binding | binding result [3]: no binding

Molecule: B2
binding result [2]: no binding | binding result [4]: no binding

Molecule: B3
binding result [5]: no binding

— US20240199696A1, “AGENTS FOR MANUFACTURE OF CO-ASSEMBLING PEPTIDES” (University of Florida Research Foundation, Incorporated, priority 2021, published 2024)
